In paper PMC9886862:

Molecular target: HoxG, large subunit of the membrane-bound [NiFe]-hydrogenase (MBH) from Cupriavidus necator, isolated, with N-terminal Strep-tag II (Cupriavidus necator) (UniProt P31891)
Test: SEC; HoxG at higher concentrations (series 0.5, 2.5, 12.5 and 60 mg/ml); Superdex 200 Increase 10/300 GL; 50 mM KiPO4, 150 mM NaCl, pH 7.4, 4 °C; sizes from a calibration curve of reference proteins

- stoichiometry N: 2
Substance: HoxG, large subunit of the membrane-bound [NiFe]-hydrogenase (MBH) from Cupriavidus necator, isolated, with N-terminal Strep-tag II (from UniProt P31891 1-618) (natural protein)
